According to patent EP2585123B1 (Planton GmbH, dated 2014):
Ends that are not written are not given here.

Target: collagen scaffold (bovine collagen type I) (bovine, UniProt P02453 162-1217; P02465 80-1117)
Assay: cell-based or functional assay

Chain of collagen scaffold (bovine collagen type I) (P02453 162-1217, chain 1 of 2): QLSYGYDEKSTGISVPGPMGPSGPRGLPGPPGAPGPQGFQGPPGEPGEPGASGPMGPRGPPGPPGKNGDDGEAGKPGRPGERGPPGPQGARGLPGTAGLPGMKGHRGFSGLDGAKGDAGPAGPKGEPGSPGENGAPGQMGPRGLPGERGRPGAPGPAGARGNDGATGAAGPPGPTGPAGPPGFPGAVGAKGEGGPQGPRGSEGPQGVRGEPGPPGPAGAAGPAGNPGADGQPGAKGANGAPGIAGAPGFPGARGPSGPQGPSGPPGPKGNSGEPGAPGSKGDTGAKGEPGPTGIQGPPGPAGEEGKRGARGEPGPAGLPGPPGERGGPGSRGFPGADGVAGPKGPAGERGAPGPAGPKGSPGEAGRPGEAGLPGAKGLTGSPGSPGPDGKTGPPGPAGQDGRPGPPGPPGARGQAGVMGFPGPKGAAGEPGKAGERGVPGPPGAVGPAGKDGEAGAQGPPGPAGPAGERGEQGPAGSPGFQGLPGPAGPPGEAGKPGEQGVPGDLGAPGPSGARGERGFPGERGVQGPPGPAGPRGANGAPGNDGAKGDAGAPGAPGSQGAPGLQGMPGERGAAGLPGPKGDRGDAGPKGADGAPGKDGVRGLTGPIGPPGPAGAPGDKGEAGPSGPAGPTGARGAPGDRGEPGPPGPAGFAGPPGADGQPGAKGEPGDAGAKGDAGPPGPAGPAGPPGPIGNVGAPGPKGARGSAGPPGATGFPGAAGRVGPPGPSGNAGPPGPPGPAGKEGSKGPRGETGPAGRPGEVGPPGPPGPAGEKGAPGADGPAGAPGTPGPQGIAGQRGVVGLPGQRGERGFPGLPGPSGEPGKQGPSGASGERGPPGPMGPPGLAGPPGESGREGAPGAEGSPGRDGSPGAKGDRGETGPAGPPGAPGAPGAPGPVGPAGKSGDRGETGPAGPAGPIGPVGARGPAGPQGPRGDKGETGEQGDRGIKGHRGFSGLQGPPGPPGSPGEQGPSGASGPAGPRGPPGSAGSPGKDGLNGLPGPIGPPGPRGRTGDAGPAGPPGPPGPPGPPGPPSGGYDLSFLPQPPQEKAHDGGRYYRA
Chain of collagen scaffold (bovine collagen type I) (P02465 80-1117, chain 2 of 2): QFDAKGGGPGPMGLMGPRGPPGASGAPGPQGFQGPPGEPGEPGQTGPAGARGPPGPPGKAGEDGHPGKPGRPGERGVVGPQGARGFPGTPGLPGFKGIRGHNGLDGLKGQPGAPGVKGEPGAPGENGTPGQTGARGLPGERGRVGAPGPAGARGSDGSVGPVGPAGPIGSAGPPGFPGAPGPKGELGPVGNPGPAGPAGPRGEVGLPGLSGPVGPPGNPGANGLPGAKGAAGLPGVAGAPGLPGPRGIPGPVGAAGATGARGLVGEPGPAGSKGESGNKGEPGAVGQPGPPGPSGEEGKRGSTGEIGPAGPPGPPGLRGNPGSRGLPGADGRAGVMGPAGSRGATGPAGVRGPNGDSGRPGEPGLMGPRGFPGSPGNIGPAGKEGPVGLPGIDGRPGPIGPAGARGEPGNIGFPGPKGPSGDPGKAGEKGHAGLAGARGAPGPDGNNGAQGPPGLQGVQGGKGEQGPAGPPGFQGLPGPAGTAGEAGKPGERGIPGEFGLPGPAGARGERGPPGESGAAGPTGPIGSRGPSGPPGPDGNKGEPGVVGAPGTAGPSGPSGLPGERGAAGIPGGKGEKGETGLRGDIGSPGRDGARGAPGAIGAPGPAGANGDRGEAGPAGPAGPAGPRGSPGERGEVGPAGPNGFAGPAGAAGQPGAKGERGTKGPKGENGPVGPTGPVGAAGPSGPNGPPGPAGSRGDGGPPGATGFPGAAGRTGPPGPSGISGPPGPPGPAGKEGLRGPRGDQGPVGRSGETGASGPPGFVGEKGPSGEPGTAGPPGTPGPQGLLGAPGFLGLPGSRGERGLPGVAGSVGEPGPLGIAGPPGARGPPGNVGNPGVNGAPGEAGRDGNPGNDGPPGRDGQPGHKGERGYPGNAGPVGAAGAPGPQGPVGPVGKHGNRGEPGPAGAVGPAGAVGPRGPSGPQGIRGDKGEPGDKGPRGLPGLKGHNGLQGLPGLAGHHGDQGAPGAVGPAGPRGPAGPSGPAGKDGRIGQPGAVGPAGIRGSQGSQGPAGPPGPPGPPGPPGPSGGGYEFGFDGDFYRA

GIGDPVTCLKSGAICHPVFCPRRYKQIGTCGLPGTKCCKKP (ends and bridges not checked; cysteine pairing not given here) [human β-defensin-2]
hBD2 released by the collagen scaffold (agar diffusion assay, zone of inhibition, 10 µg hβD2): 40% | hBD2 retarded by the collagen scaffold (agar diffusion assay, zone of inhibition, 10 µg hβD2): 60% | killing of the bacteria, collagen scaffold treated with 5 µg HAS, 4 µg hβD2, microdilution assay: 100% | killing rate, collagen scaffold treated with 5 µg BSA, 4 µg hβD2, microdilution assay: 98% | killing rate, collagen scaffold without gelatine (unblocked), 4 µg hβD2, microdilution assay: 86% | killing, collagen scaffold pre-treated with 10 µl of a 0.1% gelatine solution, 4 µg hβD2, microdilution assay: 94%
